Assay: yeast display, Sf9 membrane polyspecificity reagent, FACS + sequencing; frameworks hold sequencing errors
Procedure, shortened: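 Galactose-induced (36–48 hours) yeast carrying a synthetic nanobody display library were exposed to 10% biotinylated, detergent-solubilized Sf9 membrane reagent at 4 °C for 1 hour. FACS followed streptavidin microbead enrichment, using low and high (top ~1%) gates for expression (anti-HA) and reagent binding (streptavidin). Colony PCR, MiSeq 2 × 250 sequencing and CDR-length filtering followed. Labels for polyreactivity reflect the gate of origin.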

Sequence | polyreactivity (PSR sort gate)
QVQLVESGGGLVQAGGSLRLSCAASGFTFYTYAMGWYRQPPGKERELVAAISRRGGSTYYADSVKGRFTISRDNAKNTVYLQMNSLKPEDTAVYYFNAVADSYSGFDGYYYWGQGTQVTVSS | high polyreactivity
HVQLVESGGGLVQAGGILRLSCAASGSTFVKYAMGWYRQATGKERELVAAISSRGGRTYYADSVKGRFTISRDNAKNTVYLQMNSLKPEDTAVYYCNKGTRLDGEYDYWGQGTQVTVSS | high polyreactivity
QVQLVESGGGLVQAGGSLRLSCAASGSTIAYYAMGWDRQAPGKERELVAVINGITGSTYYADSVKGRFTISRDNEKNTVYLQMNSLKPEDTAVYYCNADYADVTDEGDYWGQGTQVTVSS | low polyreactivity
QVQRVESGGGLVQAGGSLRLSCAASGIIFQSYAMGWYRHAPGKERELVAAISRRGGRTYYADSVKGRFTISRDNAKNTVYLQMNSLKPEDTAVYYCADRYRYAPYDYWGQGTQVTVSS | high polyreactivity
QVQLVESGGGLVQAGGSLRLSCAASGIIFAFSAMGWYRQAPGKERELVAGITSGGDTYYADSVKGRFTISRDNAKNTVYLQMNSLKPEDTAVYYCAADVQYPNRAGWLYWYATNFDYWGQGTQVTVSS | high polyreactivity
QVQLVESGGGLVQAGGSLRVSCAASGRIFASYAMGWYRQAPGKERELVAAISLSGGSTYYADSVKGRFTISRDNAKNTVFLQMNSLKPEDTAVYYCAAKNYRRYRDYYWGQGTQVTVSS | high polyreactivity
QVQLVESGGGLVQAGGSLRLSCAASGSIFDRYAMGWYRQAPGKDRELVAAITWSGGSTRYADSVNGRFTISRDNAKNTVYLQMNILKPEDTAVYYCPASSTRWKVYYWGQGTQVTVSS | high polyreactivity
QVQLVESGGGLVQAGGSLRLSCAASGLTLYKNGMGWYRQAPGKERELVAVISRSGGRTYYADSVKGRFTISRDNAKNTVYLQMNSLKPEDTAVYYCAARQYGPRYTYYYWGQGTQVTVSS | high polyreactivity
QVQLVESGGGLVQAGGSLRLSCAASGRTFYYYAMGGYRQAPGKERELVAAISKSATRTYYADSVKGRFTISRDNAKNTVYLQMNSLKPEDTAVYYCATGQYLRTSRYYYWGQGTQVTVSS | high polyreactivity
QFQLVESGGGLVQAGGSLRLICAASGLTFVYNDMGWYRQAHGKERELVAGITSGGSTYYADSVKGRFTISRDNAKNTVYLQMNSLKPEDTAVYYGAADGLSTDLFRPDSIVDYWGQGTQVTVSS | low polyreactivity
QVQLVESGGGLVQAGGSLRLSCAASGSTIWPYTMGWYRQAPGKERELVAAITLRGGTTYYADSVKGRFTISRDNAKNTVYLQMNSLKPEDTVVYYCNATSGNPASTAWMNYWGQGTQVTVSS | low polyreactivity
QVQLVESGGGLVQAGGSLRLSCAASGIIFTGNAMGWYRQAPGKERELVAAITSGDTTNYADSVKGRFTISRDNAKNTVYLQMNSLKPEDTAVYFCAIELQVRQAGDYWGQGTQVTVSS | low polyreactivity
QVQLVDSGGGLDQAGGSLRLSCAASGSTFYYNAMGWYRQPPGKARELVARISRSGGSTYADSVKGRFTISRDNAMNTVYLQMNSLKPEDTAVYYCNADADGTPEFTSYSVRYDYWGQGSQVTVSS | low polyreactivity
QVQLVESGGGLVQAGGSLRLSCAASGSTFFSNAMGWYRQAPGKERELVAAISGSGDSTYYADSVKGRFTISRDNAKNTVYLQMNSLKPEDTAVYYCAARLSTAHYYLGDYWGQGTEVTVSS | low polyreactivity
PVQLVESGGGLVQAGGSLRLSCAASGRTFLVYSMGWYRQAPGKERELVAAISNGGSTNYADSVKGRFTISRDNAKKTVYLQMNSLKPEDTALYDCATRIHKWYYYWGQGTQVTVSS | high polyreactivity
QVQLVESGGGLVQAGGSLRLSCAASGFIFGYYAMGWYRQAPGKERDLVAAITSGTGTNYADSVKGRFTISRDNAKISVYLQMIRLKPEDTAVYYCAAYYTWLSEFGYWGQGTQVTVSS | low polyreactivity
QVQLVESGGGLVQAGGSLRLSCAASGFTFRWYAMGWYRQAPGKERELVAAITSDDNTYYADSVKGRFTISRDNAKNTVYLQMNSLKPEDTAVYYCAAEYADYWTYNMGYWGQGTQVTVSS | low polyreactivity
QLKLVESGGGLVQAGGSLRLSCAASGSIFDVNAMGWYREAPGKEMELVAAISDSGGSTYYADSVKGRFTISRDNAKNTVYLQMNSLKPEDTAVYYCNADWSWYHYYDCDYWGQGTQVTVSS | low polyreactivity
QGQLVESGGCLVQAGGSRRLSCAASGRTFRGNAMGWYRQAPGKERELVPAISRRGGSTYYSDSVKGRFTISRDNAKITVYLQMNSLEPEDTADYYCARDDVDDNSYGNENGTYGYWGQGTQVTVSS | high polyreactivity
QVQLVETGGGLVQARGSLRLSCAASGRTFYKYAMGWYIQAPGKERELVAAISSDGTTYYADSVKGRFTISRDNAKNTVYLQMNRLKPVDTAVYYFAADPPPPFLYVSVQEYDYWGQGTQVTVSS | low polyreactivity
QVQLVESGGGLVQAGGSLRLSCAASGRTSSINAMGWYRQAPGKERELVAVITGGGRTSYADSVKGRFTISRDNAKNTVDLQMNSLIPEDTAVYYCNATRSYYGYYYWGQGTQVTVSS | high polyreactivity
QVQLVESGGGIVQAGGSLRLSCAASGRTFRGNAMGWYRQAPGKERELVAAISWSGGRTYYADSVKGRFTISRDNAKNTVYLQMNSLKPEDTAVYYCNRLTRRWYSLRSFDYWGQGTQVTVSS | high polyreactivity

Sequence | polyreactivity (PSR sort gate)
QVHLVESGGGLVQAGGSHRLSCAASGFTIHRYAMGWYRQAPGKERELVAGITRRSGSTFYADSVKGRFTISRDNAKNTVFLQMNSLKPEDTAVYYCAATVPGLHWIYDYWGQGTQVTVSS | high polyreactivity
QVQLVESGGGLVQAGGSLRLSCAASGRTFPRYVMGWYRPAPGKERELVASITSSGGSTYYADSVKGRLTISRDNAKNTVYLQMNSLKPEDTAVYYCAAYARPNSGPYAYRLDYWGQGTQVTVSS | high polyreactivity
QVQLVESGGGLVQAGGSLRLSCAASGSIFASNAMGWYRQAPGKEREFVAAIRYSGGITYYADSVKGRFTISRDNAKNTVYLQMNSLKPEDTAVYSCAAYGWGIRWYSRFDYWGQGTPVTVSS | high polyreactivity
QVQLVESGGGLVQAGGSLRLSCAASGSNFNYYTMGWYRQAPGKERELVAAISYRGGRTYYADSVKGRFTISRDTSKNTVYLQMNSLKPEDTAVYYCNAVTRIYEVDYWGQGTQVTVSS | high polyreactivity
KVQLLQTGRGLVQAGGSLRISCAASGRLFWYSDLVWYRQAPGKESELVAAISQRGGSTYYADSVKGSFTISRDNAKNTVYLQMISLKPEDTAGYYCNADFWWAYYPWEYDYWGQGTLVTVSS | high polyreactivity
QVQLVESGGGLVQAGGSLRLSCAASGRTIRWYTMGGYRQAPGKEMELVAGISSSGGSTYYADSVKGRFTISRDNAMNTVYLQMNSLKPEDTAVYYCNAQALRLFWRYDYWGQGTQVTVSS | low polyreactivity
QVQLVESGGGLVQAGGSLRLSCAASGFIFVKYAMGWYRQAPGKERELVAAISSTGGRTYYADSVKGRFTISRDNAKNTVYLQMNSLKPEVTAVYYCATEYGYPYGYWGQCTQVTVSS | high polyreactivity
QFQLVETRRGLVQAGGSLRLSCAASGSIFLENAMRRYRQAPGKERELVAVINSGDSTYYADSVKGRFTMSRDNAKNTVYLQMNSLKPEDTSVYYCAADRDVRTRVFSYDYWGQGTQVTVSS | low polyreactivity
QVQLVESGGGLVQAGGSLRLSCAASGRTFRTYVMGWYRQAPGKERELVAAITWSGGRTYYADSVKGRFTISRDNAKNTVYLQMNSLKPEDTAVYYCATQPTYYLRSYGLDYWGQGTQVTVSS | high polyreactivity
QVQLVESCGGLVQAGGSLRLSCAASGIIFRYYAMGWYRQAPGKEREFVASINFSGSSTYYADSVKGRFTISRDNAKNSVYLQMKSLKPEDTAVYYCAAGRRWLYDYWGQGTQVTVSS | high polyreactivity
QVQRVESGGGLVQAGGSLRLSCAASGGIFFYNAMGWYRQAPGIERELVATIRGGGSTNYADSVKGRFTISRDNAKNTVYLQMNSLKPEDTAVYFCAAVDRRGANYNYWGQGTQVTVSS | high polyreactivity
QVQLVESGGGLVQAGGSLRLSCAASGRIFKRYAMGWYRQAPGKERELVASITTSGDSTYYADSVKGRFTISRDNAKNTVYLQMNSLKPEDTAVYYCAARSYRGRRYDYWGQGTQVTVSS | high polyreactivity
QVQLVESGGGLVQAGGSLRLSCAASGFIFNHYAMGWYRQAPGKEREFVAAISWSGGSTYYADSVKGRFTISRDNAKNTVYLQMNSLKPEDTAVYYCAASYNGLWHGDYDYWGQGTQVTVSS | low polyreactivity
QVQLVESGGGLVQAGGSLRLSCAASGSIIYYYAMGWYRQAPGKERELVAAIRGGGSTNYADSVKGRFTISRDNAKNTVYLQMNSLKPEDTAVYYCNADYRNDCGTPLWYAYNYWGQGTQVTVSS | low polyreactivity
QVQLVESGGGLVQAGGSLRLSCAASGSTFEWNAMGWYRQAPGKERELVAAISWRTTRTYYADSVKGRFTISRDNAKNTVYLQMNSLKPEDTAVYYCAVVTSPYYGGYEYWGQGTQVTVSS | high polyreactivity
QVQLQESGGGLVQAGGSLRLSCAASGYISIGRRMGWYRQAPGKERELVAGINGGGSTNYADSVKGRSTISRDNAKNTVYLQMNSLKPEDTAVYYCAAYVYDYDWYKYWGQGTQVTVSS | high polyreactivity
QVQLVESGGGLVQAGGSLRLSCAASGSIFYAYAMGWYRQAPGKEREFVAVISYSGGSTYYADSVKGRFTISRDNAKNTVYLQMNSLKPEDTAVYYCAARYRRPYSYYYWGQGTQVTVSS | high polyreactivity
QVQLEESGGGLVQAGGSLRLSCAASGSTFHTYAMGWYRQAPGKERELVASISYGVTTYYADSVKGRFTISRDNAKNTVYLQMNSLTPEDTAVYYCAREGYNWVYLSYGYWGQGTQVTVSS | low polyreactivity
QVQLEESGGGLVQAGGSLRLSCAASGITFVDYDMGWYRQATGKERELVAAITTGSSTYYADSVKGRFTISRDNAKNTVYLQMNSLKPEDTAVYYCARDLEYDYYQQWSYGYWGQGTQVTVSS | low polyreactivity
QVQLVESGGGLVQAGGSLRLTCAASGGTFIKNAMGWYRQAPGKERELVAAISWSGGRTYYADSVKGRFTITRDNPKNTVYLPMNSLKPEDTAVYYCNARYAGRLSYSYEYWGQVTQVTVSS | high polyreactivity
QVQLVESGGGLVQAGGSLRLSSAASGSTIGYYAMRWYRQAPGKERELVAAISWSGGSTYYADSVKGRFTISRDNAKNTVYLQMNSLKPEDTAVYYCAADTYPDYYLVEYYYWGQGTQVTVSS | low polyreactivity
